The term IC50 denotes the concentration at which inhibition is half-maximal. Read a low IC50 as higher potency.

These results are taken from patent publication US20230241072A1, “ANTHRACYCLINE DERIVATIVES” (ALMAC DISCOVERY LIMITED, priority 2019, published 2023).

The target in series [1] is ROR1 (Homo sapiens, UniProt Q01973). Conditions: VNAR domain; data in WO 2019/122447; cited from earlier work.
The test system of series [2] is Kasumi-2. As to the kind of experiment: In vitro cell viability assay (Cell Titre Glo), VNAR drug conjugates: Kasumi-2. It is filed as cell-based, human. The method, then:
(§1) In Vitro Cell Viability Assays for Cancer Cells Treated with Anti ROR1 VNAR Drug Conjugates
(§2) Cells were seeded into white, clear bottom 96 well plates (Costar) and incubated at 37° C., 5% CO2 for 24 hours. On the following day, dilution series were set up for each test agent at ×10 working stocks. The dose response ×10 stock was: 10000, 5000, 1000, 500, 100, 50, 10, 5, 1, 0.5 nM etc. 10 μL of the ×10 stock solutions were added to the cell plates (90 μl per well) using a multichannel pipette. […] 100d of vehicle control (PBS) was added to the control wells (columns 11 and 12). Plates were incubated at 37′C, 5% CO2 for 72-96 hours. Promega Cell litre Glo reagent was used as per the manufacturer's instructions to assess cell viability. Briefly, assay plates were removed from incubator and allowed to equilibrate to room temperature before adding […] of room temperature Cell litre Glo reagent to each 100 μl assay well. Plates were placed on a plate shaker for 2 minutes at 600 rpm. Plates were allowed to sit for a further 10 minutes at room temperature prior to measuring luminescence read-out using a Clariostar plate-reader (BMG). Data was analysed by calculating the average for untreated (vehicle only) control wells and determining the % of control for each treated well. % of control data was then plotted against Log [Treatment] concentration and the IC50 value derived using non-linear regression fitting in GraphPad Prism software.
(§3) The following cell lines were used: • Kasumi-2—human B cell leukaemia precursor; • PA-1—human ovarian cancer cell line; • PA-1 ROR1 ko—human ovarian cancer cell line with ROR1 knock-out; • 697—human B cell leukaemia precursor, and • MHH-ES1—human Ewing's sarcoma cell line.

Series [3] relates to PA-1. The series is described as follows: In vitro cell viability assay (Cell Titre Glo), VNAR drug conjugates: PA-1. It is filed as cell-based, human. How it is done: as §1, §2, §3
Series [4] has as its system PA-1 ROR1 ko. As to the kind of experiment: In vitro cell viability assay (Cell Titre Glo), VNAR drug conjugates: PA-1 ROR1 ko. It is filed as cell-based, human. The method, then: as §1, §2, §3
The test system of series [5] is 697. As to the kind of experiment: In vitro cell viability assay (Cell Titre Glo), VNAR drug conjugates: 697. It is filed as cell-based, human. How it is done:
as §1, §2, §3

The subject of series [6] is MHH-ES1. The series is described as follows: In vitro cell viability assay (Cell Titre Glo), VNAR drug conjugates: MHH-ES1. It is filed as cell-based, human. The method, then: as §1, §2, §3
In series [7] the target is Cathepsin B (Homo sapiens, UniProt P07858). The series is described as follows: Cathepsin B treatment of protein-PNU conjugates, payload release. It is filed as in vitro ADME. Conditions: after treatment with Cat B. The source says:
Cathepsin B treatment of VNAR-hFc-vc-PAB-EDA-PNU conjugates and the corresponding conjugates of the multimeric proteins liberated free EDA-PNU159682 derivative in a quantitative fashion. Whereas, VNAR-hFc-va-EDA-PNU conjugates and the corresponding conjugates of the multimeric proteins were completely stable to Cathepsin B treatment.
Only the vc-PAB-EDA-PNU releases payload on treatment with CatB as expected for the conditions used in this in vitro assay. The release is quantitative—as the conjugates have a drug to antibody ratio of 2, then twice the concentration of payload released versus the concentration of conjugate is expected after CatB treatment. This expectation matches the data shown in Table 11 for vc-PAB-EDA-PNU conjugates.

A short description of series [8]: Mouse plasma stability of protein-PNU conjugates (LC-MS of released payload). Type of series: in vitro ADME. Conditions: 37° C., 4 μM protein. The method, then: Different P3A1-hFc-PNU conjugates were incubated at 37° C. in mouse plasma at a final concentration of 4 μM of protein. Samples were analysed by LC-MS as a function of time and the amount of released PNU159682 and EDA-PNU159682 derivative was quantified by reference to calibration standards.

Series [9] in a line: Human plasma stability of protein-PNU conjugates (LC-MS of released payload). It is filed as in vitro ADME. Conditions: 37° C., up to 168 h, 4 or 2 uM PDC, LLOQ 0.1 or 0.156 uM. The method, then:
Different conjugates were incubated at 37° C. for 168 h in human plasma at a final concentration of 4 μM or 2 μM of protein. Samples were analysed by LC-MS as a function of time up to and including 168 h and the amount of released PNU159682 and EDA-PNU159682 derivative was quantified by reference to calibration standards.

Setting [10] is: ratio to corresponding non-binding 2V-hFc conjugate.

B1: P3A1: VNAR domain, SEQ ID NO: 43 (protein)
VHH: TRVDQTPRTATKETGESLTINCVLTDTSYGLYSTSWFRKNPGTTDWERMSIGGRYVESVNKGAKSFSLRIKDLTVADSATYYCKAREARHPWLRQWYDGAGTVLTVN
Turning to B1, the “binding to ROR1” value in series [1] was “bind to ROR1”.

B2: P3A1hFc-PEG4-va-EDA-PNU (conjugate)
chain: TRVDQTPRTATKETGESLTINCVLTDTSYGLYSTSWFRKNPGTTDWERMSIGGRYVESVNKGAKSFSLRIKDLTVADSATYYCKAREARHPWLRQWYDGAGTVLTVNGGGGSGGGGSGGGGS
modifications: left off: a dimerising Fc or GST
Regarding B2, the IC50 in series [2] (Table 5, 96 h) turned out to be 2.3 nM; in series [3] (Table 5, 96 h), 0.15 nM; in series [4] (Table 5, 96 h, PA-1 ROR1 ko) it was 11.3 nM; in series [5] (Table 5, 96 h), 61 nM; in [6] (Table 5, 96 h), 18 nM. Moreover, the “ROR1 targeting/2V non-targeting window Kasumi-2” value in [2] (setting [10]) turned out to be 43. Further, the “ROR1 targeting/2V non-targeting window PA-1” value in series [3] (setting [10]) was found to be 360. Also, the “ROR1 targeting/2V non-targeting window PA-1 31-J-06” value in series [4] (ratio to corresponding non-binding 2V-hFc conjugate, PA-1 31-J-06 (ROR1 −/−; matches PA-1 ROR1 ko of Table 5)) is reported as 4. Further, in series [5] (setting [10]), the “ROR1 targeting/2V non-targeting window 697” value was 4. For the same molecule, the “ROR1 targeting/2V non-targeting window MHH-ES1” value in series [6] (setting [10]) is 8.4. The “EDA released, per cent of theoretical conc of payload” value in series [7] (figure in brackets) is given as 1.7%. Besides, the “Average Conc EDA Released” value in [7] (protein 10 uM (2VhFc conjugate 5 uM)) was 0.36 µM. In addition, the “Concentration (nM) of free PNU payload detected by LC-MS, 4 h” value in [8] (4 h) stood at 3 nM. In series [8] (24 h), the “Concentration (nM) of free PNU payload detected by LC-MS, 24 h” value is 4 nM. The “Concentration (nM) of free PNU payload detected by LC-MS, 48 h” value in series [8] (48 h) came out at 1 nM. In addition, in series [8] (72 h), the “Concentration (nM) of free PNU payload detected by LC-MS, 72 h” value stood at 2 nM. Moreover, the “Concentration (nM) of free PNU payload detected by LC-MS, 96 h” value in [8] (96 h) came out at 5 nM. The “Concentration (nM) of free PNU payload detected by LC-MS, 120 h” value in series [8] (120 h) was found to be 3 nM. Also, the “Observed EDA payload release” value in [9] is “no EDA-PNU detected at any time points”.
